Measured values from the RNAGym collection of RNA variant scans (doi:10.7554/elife.80360).

B1: HDV Ribozyme (parent)
chain: GGCCGGCAUGGUCCCAGCCUCCUCGCUGGCGCCGGCUGGGCAACAUUCCGAGGGGACCGUCCCCUCGGUAAUGGCGAAUGGGACCCA

Variants of: B1
Assay: self-cleavage, relative activity (ratio to wild type); higher = more cleavage; co-transcriptional
In the case of GGCCGGCAUGGUCUCAGCCUCCUCGCUGGCGCCGGCUGGGCAACAUUCCGAGGGGACCGUCCCCUCGGUAAUGGCGAAUGGGACACA [C14U C85A], the self-cleavage is reported as 0.978. With GGCCGGCAUGGUCCCAGCCUCCUCGCUGGCGCCGGCUGCGCAACAUUCCGAGGGGACCGUCCCCUCGGUAAUGCCGAAUGGGACCCA [G39C G74C] the self-cleavage was 0.166. Variant GGCCGGCAUGGUCCCAGCCUCCACGCUGGCGCCGGCUGGGCAACAUUCCGAGAGGACCGUCCCCUCGGUAAUGGCGAAUGGGACCCA [U23A G53A] has a self-cleavage of 0.95. GGCCGGCAUGGUCCCAGCCUCCUCGCUGGCGCCGGCUGGGCAACAUUCCGAGUGGACUGUCCCCUCGGUAAUGGCGAAUGGGACCCA [G53U C58U] showed a self-cleavage of 1.03. Variant GGCCGGCAUGGUCCCAGCCUCCUCGCUGGCGCCGGCUGGGCAACAUUCCCUGGGGACCGUCCCCUCGGUAAUGGCGAAUGGGACCCA [G50C A51U] has a self-cleavage of 0.755. With GGCCGGCAUGGUCCCAGCCUCCUCGCUGGCGCCGGCUGGCCAACAUUCCGAGGGGACGGUCCCCUCGGUAAUGGCGAAUGGGACCCA [G40C C58G] the self-cleavage was 0.264. With GGCCGGCAAGGUCUCAGCCUCCUCGCUGGCGCCGGCUGGGCAACAUUCCGAGGGGACCGUCCCCUCGGUAAUGGCGAAUGGGACCCA [U9A C14U] the self-cleavage was 1.11. With GGCCGGCAUGGUCCCAGCCUCCUCGCUGGCGCCGGCUGGGCAUCAUUCCGAGGGGACCGCCCCCUCGGUAAUGGCGAAUGGGACCCA [A43U U60C] the self-cleavage was 0.678. In the case of GGCCGGCAUGGUCCCAGCCUCCUCGCUGGCGCCGGCUGGGCAACAUUCCGAGGGGAUCGUCCCCUCGGUAAUGGCGAAAGGGACCCA [C57U U79A], the self-cleavage is reported as 0.752. GGCCGGAAUGGUCCCAGCCUCCUCGCUGGCGCCGGCUGGGCAACAUUCCGAGGGGACCGUCCCCUCUGUAAUGGCGAAUGGGACCCA [C7A G67U] gave a self-cleavage of 0.378. In the case of GGCCCGCAUGGUCCCAGCCUCCUCGCUGGCGCCGGCUGGGCAACAUUCCGAGGGGACCGUCCCCUCGGUAAUGGCGAAUGGGACGCA [G5C C85G], the self-cleavage is reported as 0.0755. In the case of GGCCGGCAUGGUCCCAGCCUCCUCGCUUGCGCCGGCUGGGCAACAUUCCGAGGGGACCAUCCCCUCGGUAAUGGCGAAUGGGACCCA [G28U G59A], the self-cleavage is reported as 0.0936. GGCCGGCAUGGUCCCAGCCUCCUCGCUGGCGACGGCUGGGCAACAUUCCGAGGGGACCGUCCGCUCGGUAAUGGCGAAUGGGACCCA [C32A C63G] gave a self-cleavage of 0.095. In the case of GGCCGCCAUGGUCCCAGCCUCCUCGCUGGCGCCGGCUGGGCAACAGUCCGAGGGGACCGUCCCCUCGGUAAUGGCGAAUGGGACCCA [G6C U46G], the self-cleavage is reported as 0. Variant GGCCGGCAUGGUCCCAGGCUCCUCGCUGGCGCCGGCUGGGCAACAUUCCGAGGGGACCGUCCCCUCGGUAAUGGCAAAUGGGACCCA [C18G G76A] has a self-cleavage of 0.111. In the case of GGCCGGCAUGGUCUCAGCCUCCUCGCUGGCGCCGGCUGGGCAACAUUCUGAGGGGACCGUCCCCUCGGUAAUGGCGAAUGGGACCCA [C14U C49U], the self-cleavage is reported as 0.942. For CGCCGGCAUGGUCCCAGCCUCCUCGCAGGCGCCGGCUGGGCAACAUUCCGAGGGGACCGUCCCCUCGGUAAUGGCGAAUGGGACCCA [G1C U27A], the self-cleavage was 0.185. Variant GGCCGGCAUGCUCCCAGCCUCCUCGCUGGCGCCGGCUGGGCAACAUUCCGAGGGGACCGUCCCCACGGUAAUGGCGAAUGGGACCCA [G11C U65A] has a self-cleavage of 0.293. In the case of GGCCGGCAAGGUCCCAGCCUCCUCGCUGGCGCCGGCUGGGCAACAUUCCGAGGGGACCGUCCCCUCGGUAAGGGCGAAUGGGACCCA [U9A U72G], the self-cleavage is reported as 0.787. Work on GGCCGGAAUGGUCCCAGCCUCCUCGCUUGCGCCGGCUGGGCAACAUUCCGAGGGGACCGUCCCCUCGGUAAUGGCGAAUGGGACCCA [C7A G28U] yielded a self-cleavage of 0.0361. In the case of GGCCGGCAUGGUCCCAGCCUCCUCGCUGGCGCCAGCUGGGCAACAUUCCGAGGGGACCGUCCCCUCGGAAAUGGCGAAUGGGACCCA [G34A U69A], the self-cleavage is reported as 0.166. GGCCGGCAUGGUCCCAGCCUCCUCGCUGGCGCCGGCUGCGCAACAGUCCGAGGGGACCGUCCCCUCGGUAAUGGCGAAUGGGACCCA [G39C U46G] gave a self-cleavage of 0.262. With GGCCGGCAUGGUCCCAGCCUCCUCGCUGGCGCCGGCUGGGCACCAUUGCGAGGGGACCGUCCCCUCGGUAAUGGCGAAUGGGACCCA [A43C C48G] the self-cleavage was 0.449. In the case of GGCCGGCCUGGUCCCAGCCUCCUCGCUGGCGCUGGCUGGGCAACAUUCCGAGGGGACCGUCCCCUCGGUAAUGGCGAAUGGGACCCA [A8C C33U], the self-cleavage is reported as 0.554. With GGCCGGCAUGGCCCCAGCCUCCUCGCUGGCGCCGGCUGGGCAACAUUCCGAGGGAACCGUCCCCUCGGUAAUGGCGAAUGGGACCCA [U12C G55A] the self-cleavage was 0.237. GGCCGGCAUGGUCCCAGCCUCCUCGCUGGCGCCGGCUGGGCAACAUUCCGAGGGGACCGUCCCCGCGGUAAUGGCGAAUGUGACCCA [U65G G81U] showed a self-cleavage of 0.248. For GGCCGGCAUGGUCCCAGCCUCCUCGCUAGCGCCGGCUGGGCAACAUUCCGAGGGGACCGUCCCCUCGGUAAUGGCGAAUGGGACGCA [G28A C85G], the self-cleavage was 0.0332. Variant GGCCGGUAUGGUCCCAGCCUCCUCGCUGGCGCCGGCUGGGCAACAUUCCGAGGGGACCGUCCCCUCGGUAACGGCGAAUGGGACCCA [C7U U72C] has a self-cleavage of 0.268. In the case of GGCCGGCAUGGUCCCAGCCUCCUCGCUGGCGCCGGCUGGGCAACAUUCCGAGCGGACCGUCCCCGCGGUAAUGGCGAAUGGGACCCA [G53C U65G], the self-cleavage is reported as 0.688. In the case of GGCCGGCAUGGUCCCAGCCUCCUCGCUGGCGCCCGCUGGGCAACAUUCCGAGGGGAACGUCCCCUCGGUAAUGGCGAAUGGGACCCA [G34C C57A], the self-cleavage is reported as 0.288. With GGGCGGCAUGGUCCCUGCCUCCUCGCUGGCGCCGGCUGGGCAACAUUCCGAGGGGACCGUCCCCUCGGUAAUGGCGAAUGGGACCCA [C3G A16U] the self-cleavage was 0.655. For GGCCGGCAUGGUCCCAGCCUCCUCGCUGGCGCCGGCUGGGCUACAUUCCGAGGGGACCGUCCCCUAGGUAAUGGCGAAUGGGACCCA [A42U C66A], the self-cleavage was 0.511.
